Read-outs that look alike come from different tables or passages of the source. *1 amine or outer side, *2 acyl side, *3 side chain or, on linkers, in order; H or OH if unused. Where no end group is shown, it is not given here. Side-chain parts run from the residue outwards. [ ]: non-standard residue; d: D form. The star is where a group is joined. γGlu = O=C(O)[C@H](CCC(=O)[*:2])N[*:1]; Palmitoyl = CCCCCCCCCCCCCCCC(=O)*; Aib = CC(C)(N)C(=O)O
T1: GIP receptor (UniProt P48546 22-466, limits assumed)
T1 sequence (looked up): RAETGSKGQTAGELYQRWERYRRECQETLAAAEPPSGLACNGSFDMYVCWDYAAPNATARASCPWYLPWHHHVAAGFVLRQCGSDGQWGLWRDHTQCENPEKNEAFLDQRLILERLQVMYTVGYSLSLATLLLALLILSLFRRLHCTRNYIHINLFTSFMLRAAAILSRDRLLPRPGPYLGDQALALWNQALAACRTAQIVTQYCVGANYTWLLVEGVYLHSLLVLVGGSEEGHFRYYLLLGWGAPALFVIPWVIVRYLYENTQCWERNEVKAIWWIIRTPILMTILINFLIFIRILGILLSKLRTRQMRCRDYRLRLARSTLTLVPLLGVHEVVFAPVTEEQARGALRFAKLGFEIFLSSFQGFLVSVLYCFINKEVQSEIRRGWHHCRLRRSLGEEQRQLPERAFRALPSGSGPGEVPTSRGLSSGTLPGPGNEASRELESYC

B1: Analog No. 30: Aib2, K10acyl, E16, A18, L27, D28, G29 + CEX (SEQ ID NO: 28) (peptide)
peptide: H[Aib]QGTFTSDK([γGlu-Palmitoyl])SKYLDERAAQDFVQWLLDGGPSSGAPPPS-NH2
B2: peptide of SEQ ID NO: 230 (peptide)
peptide: H[Aib]QGTFTSDYSIYLDEKRAKEFVCWLLAGGPSSGAPPPSK-NH2
modifications: N-terminus assumed
SMILES: CC[C@H](C)[C@H](NC(=O)[C@H](CO)NC(=O)[C@H](Cc1ccc(O)cc1)NC(=O)[C@H](CC(=O)O)NC(=O)[C@H](CO)NC(=O)[C@@H](NC(=O)[C@H](Cc1ccccc1)NC(=O)[C@@H](NC(=O)CNC(=O)[C@H](CCC(N)=O)NC(=O)C(C)(C)NC(=O)[C@@H](N)Cc1c[nH]cn1)[C@@H](C)O)[C@@H](C)O)C(=O)N[C@@H](Cc1ccc(O)cc1)C(=O)N[C@@H](CC(C)C)C(=O)N[C@@H](CC(=O)O)C(=O)N[C@@H](CCC(=O)O)C(=O)N[C@@H](CCCCN)C(=O)N[C@@H](CCCNC(=N)N)C(=O)N[C@@H](C)C(=O)N[C@@H](CCCCN)C(=O)N[C@@H](CCC(=O)O)C(=O)N[C@@H](Cc1ccccc1)C(=O)N[C@H](C(=O)N[C@@H](CS)C(=O)N[C@@H](Cc1c[nH]c2ccccc12)C(=O)N[C@@H](CC(C)C)C(=O)N[C@@H](CC(C)C)C(=O)N[C@@H](C)C(=O)NCC(=O)NCC(=O)N1CCC[C@H]1C(=O)N[C@@H](CO)C(=O)N[C@@H](CO)C(=O)NCC(=O)N[C@@H](C)C(=O)N1CCC[C@H]1C(=O)N1CCC[C@H]1C(=O)N1CCC[C@H]1C(=O)N[C@@H](CO)C(=O)N[C@@H](CCCCN)C(N)=O)C(C)C
B3: peptide of SEQ ID NO: 89 (peptide)
peptide: H[Aib]QGTFTSDYSKYLDERAAQDFVQWLLDGGPSSGAPPPSK([γGlu-γGlu-Palmitoyl])G-NH2
modifications: not fully specified

What was measured:
Assay in all cases: cell-based or functional assay
GIP receptor [1] = target: T1, GIP receptor
GIP receptor [2] = target: T1, GIP receptor; remark: listed apart in the source
glucagon receptor [3] = target: T2, glucagon receptor (UniProt P47871 26-477, limits assumed)
GLP-1 receptor [4] = target: T3, GLP-1 receptor (UniProt P43220 24-463, limits assumed)
GIP receptor [5] = target: T1, GIP receptor; remark: listed apart in the source
glucagon receptor [6] = target: T2, glucagon receptor; remark: listed apart in the source
GLP-1 receptor [7] = target: T3, GLP-1 receptor; remark: listed apart in the source
GIP receptor [8] = target: T1, GIP receptor; remark: listed apart in the source
glucagon receptor [9] = target: T2, glucagon receptor; remark: listed apart in the source
GLP-1 receptor [10] = target: T3, GLP-1 receptor; remark: listed apart in the source
GIP receptor [11] = target: T1, GIP receptor; remark: listed apart in the source
glucagon receptor [12] = target: T2, glucagon receptor; remark: listed apart in the source
GLP-1 receptor [13] = target: T3, GLP-1 receptor; remark: listed apart in the source
GIP receptor [14] = target: T1, GIP receptor; remark: listed apart in the source
glucagon receptor [15] = target: T2, glucagon receptor; remark: listed apart in the source
GLP-1 receptor [16] = target: T3, GLP-1 receptor; remark: listed apart in the source
GIP receptor [17] = target: T1, GIP receptor; remark: listed apart in the source
glucagon receptor [18] = target: T2, glucagon receptor; remark: listed apart in the source
GLP-1 receptor [19] = target: T3, GLP-1 receptor; remark: listed apart in the source
GIP receptor [20] = target: T1, GIP receptor; remark: listed apart in the source
glucagon receptor [21] = target: T2, glucagon receptor; remark: listed apart in the source
GLP-1 receptor [22] = target: T3, GLP-1 receptor; remark: listed apart in the source
Target sequence in this assay (P43220 24-463 limits assumed): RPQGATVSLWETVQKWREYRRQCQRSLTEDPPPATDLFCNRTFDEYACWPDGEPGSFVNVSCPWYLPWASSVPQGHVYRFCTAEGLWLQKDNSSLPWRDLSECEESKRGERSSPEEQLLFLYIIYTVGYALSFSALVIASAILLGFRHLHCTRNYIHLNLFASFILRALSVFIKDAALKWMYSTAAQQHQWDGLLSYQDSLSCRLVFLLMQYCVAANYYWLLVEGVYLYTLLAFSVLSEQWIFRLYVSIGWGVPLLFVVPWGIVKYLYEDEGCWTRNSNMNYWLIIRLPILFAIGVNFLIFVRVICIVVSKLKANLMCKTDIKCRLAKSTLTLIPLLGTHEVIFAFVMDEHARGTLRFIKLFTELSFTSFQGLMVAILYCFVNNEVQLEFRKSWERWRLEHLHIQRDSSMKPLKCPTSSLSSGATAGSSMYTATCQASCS

GIP receptor [23] = target: T1, GIP receptor; remark: listed apart in the source

T2 sequence (P47871 26-477 limits assumed): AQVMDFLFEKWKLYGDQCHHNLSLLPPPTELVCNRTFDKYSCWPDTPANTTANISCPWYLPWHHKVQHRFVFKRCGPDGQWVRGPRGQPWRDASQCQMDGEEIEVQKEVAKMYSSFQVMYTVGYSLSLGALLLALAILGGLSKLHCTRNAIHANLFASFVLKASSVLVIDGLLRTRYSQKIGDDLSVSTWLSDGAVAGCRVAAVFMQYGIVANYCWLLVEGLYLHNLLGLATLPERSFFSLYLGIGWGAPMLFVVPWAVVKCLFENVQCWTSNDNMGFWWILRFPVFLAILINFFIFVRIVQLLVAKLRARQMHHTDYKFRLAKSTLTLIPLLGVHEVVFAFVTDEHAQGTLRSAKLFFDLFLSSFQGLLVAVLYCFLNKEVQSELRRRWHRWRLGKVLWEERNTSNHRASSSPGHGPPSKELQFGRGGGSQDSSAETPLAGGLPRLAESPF

Row | Molecule | EC50 (cAMP reporter) (glucagon receptor [6]) [pM] | EC50 (cAMP reporter) (GLP-1 receptor [7]) [pM] | EC50 (cAMP reporter) (GIP receptor [8]) [pM] | EC50 (cAMP reporter) (glucagon receptor [15]) [pM] | EC50 (cAMP reporter) (GLP-1 receptor [16]) [pM] | EC50 (cAMP reporter) (GIP receptor [17]) [pM] | EC50 (cAMP reporter) (glucagon receptor [18]) [pM] | EC50 (cAMP reporter) (GLP-1 receptor [19]) [pM] | EC50 (cAMP reporter) (GIP receptor [20]) [pM] | further results
1 | Native GIP (SEQ ID NO: 2) (from UniProt P09681 52-93) (ligand) | – | – | – | – | – | – | – | – | – | EC50 (cAMP reporter) (GIP receptor [1]): 10 pM; EC50 (cAMP reporter) (GIP receptor [2]): 6.5 pM
2 | B1 | 2 | 2 | 3 | 2 | 2 | 2 | 3 | 4 | 4 | EC50 (cAMP reporter) (glucagon receptor [3]): 2 pM; EC50 (cAMP reporter) (GLP-1 receptor [4]): 2 pM; EC50 (cAMP reporter) (GIP receptor [5]): 3 pM; activity (cAMP reporter), column Glu (glucagon receptor [9]): 0.002; activity (cAMP reporter), column GLP (GLP-1 receptor [10]): 0.002; activity (cAMP reporter), column GIP (GIP receptor [11]): 0.003; EC50 (cAMP, nmole) (glucagon receptor [12]): 0.004 nmol; EC50 (cAMP, nmole) (GLP-1 receptor [13]): 0.003 nmol; EC50 (cAMP, nmole) (GIP receptor [14]): 0.007 nmol
3 | B2 | – | – | – | – | – | – | – | – | – | EC50 (cAMP reporter) (glucagon receptor [21]): 1640 pM; EC50 (cAMP reporter) (GLP-1 receptor [22]): 222 pM; EC50 (cAMP reporter) (GIP receptor [23]): 164 pM
4 | B3 | 4.1 | 2.1 | 24 | 4 | 4 | 20 | 6 | 5 | 28 | –
